# Measured values reported in patent US9738911B2, “Methods of producing 7-carbon chemicals via pyruvate and succinate semialdehyde aldol condensation” (INVISTA North America S.a r.l., priority 2012, dated 2017).
# Key:
# Assay type in all cases: biochemical
# [1] = ω-transaminase activity assay, 7-aminoheptanol to 7-oxoheptanol; conditions: for substrate acceptance, formation of L-alanine by RP-HPLC: 10 mM 7-aminoheptanol, 10 mM pyruvate, cell free extract, 25° C., 4 h, against empty vector control (FIG. 19); for acceptance of 7-oxoheptanol, forming 7-aminoheptanol, concluded from reversibility: concluded from the reverse direction assay and Example 2
# Protocol: A nucleotide sequence encoding an N-terminal His-tag was added to the Chromobacterium violaceum, Pseudomonas syringae and Rhodobacter sphaeroides genes encoding the ω-transaminases of SEQ ID NOs: 8, 10 and 11, respectively (see FIGS. 7F and 7G) such that N-terminal HIS tagged ω-transaminases could be produced. The modified genes were cloned into a pET21a expression vector under the T7 promoter.
# Each expression vector was transformed into a BL21[DE3] E. coli host. Each resulting recombinant E. coli strain were cultivated at 37° C. in a 250 mL shake flask culture containing 50 mL LB media and antibiotic selection pressure, with shaking at 230 rpm. Each culture was induced overnight at 16° C. using 1 mM IPTG.
# (§1) The pellet from each induced shake flask culture was harvested via centrifugation. Each pellet was resuspended and lysed via sonication. The cell debris was separated from the supernatant via centrifugation and the cell free extract was used immediately in enzyme activity assays.
# (§2) Enzyme activity assays in the reverse direction (i.e., 7-aminoheptanol to 7-oxoheptanol) were performed in a buffer composed of a final concentration of 50 mM HEPES buffer (pH=7.5), 10 mM 7-aminoheptanol, 10 mM pyruvate, and 100 μM pyridoxyl 5′ phosphate. Each enzyme activity assay reaction was initiated by adding cell free extract of the ω-transaminase gene product or the empty vector control to the assay buffer containing the 7-aminoheptanol and then incubated at 25° C. for 4 h, with shaking at 250 rpm. The formation of L-alanine was quantified via RP-HPLC.
# [2] = ω-transaminase activity assay, forward direction, pimelate semialdehyde to 7-aminoheptanoate; conditions: for substrate acceptance, formation of pyruvate from L-alanine by RP-HPLC: 10 mM pimelate semialdehyde, 10 mM L-alanine, cell free extract, 25° C., 4 h, against empty vector control (FIG. 16); for reversibility of ω-transaminase activity: pimelate semialdehyde accepted, 7-aminoheptanoate synthesized: conclusion from the forward and reverse assays of Example 2
# Protocol: (§3) A sequence encoding an N-terminal His-tag was added to the genes from Chromobacterium violaceum, Pseudomonas syringae, Rhodobacter sphaeroides, and Vibrio Fluvialis encoding the ω-transaminases of SEQ ID NOs: 8, 10, 11 and 13, respectively (see FIGS. 7F-7G) such that N-terminal HIS tagged ω-transaminases could be produced. Each of the resulting modified genes was cloned into a pET21a expression vector under control of the T7 promoter and each expression vector was transformed into a BL21[DE3] E. coli host. The resulting recombinant E. coli strains were cultivated at 37° C. in a 250 mL shake flask culture containing 50 mL LB media and antibiotic selection pressure, with shaking at 230 rpm. Each culture was induced overnight at 16° C. using 1 mM IPTG.
# as §1
# Enzyme activity in the forward direction (i.e., pimelate semialdehyde to 7-aminoheptanoate) was confirmed for the transaminases of SEQ ID NO 10, SEQ ID NO 11 and SEQ ID NO 13. Enzyme activity assays were performed in a buffer composed of a final concentration of 50 mM HEPES buffer (pH=7.5), 10 mM pimelate semialdehyde, 10 mM L-alanine and 100 μM pyridoxyl 5′ phosphate. Each enzyme activity assay reaction was initiated by adding a cell free extract of the ω-transaminase gene product or the empty vector control to the assay buffer containing the pimelate semialdehyde and incubated at 25° C. for 4 h, with shaking at 250 rpm. The formation of pyruvate was quantified via RP-HPLC.
# [3] = ω-transaminase activity assay, reverse direction, 7-aminoheptanoate to pimelate semialdehyde; conditions: 10 mM 7-aminoheptanoate, 10 mM pyruvate, cell free extract, 25° C., 4 h; against empty vector control (FIG. 15)
# Protocol: as §3, §1
# as §2, with “7-aminoheptanoate” for “7-aminoheptanol”, “pimelate semialdehyde)” for “7-oxoheptanol)”, “7-aminoheptanoate,” for “7-aminoheptanol,”, “pyruvate” for “pyruvate,”, “and” for “and then”, “L-alanine from pyruvate” for “L-alanine”
# [4] = Carboxylate reductase activity assay, N7-acetyl-7-aminoheptanoate to N7-acetyl-7-aminoheptanal; conditions: 2 mM N7-acetyl-7-aminoheptanoate, 1 mM ATP, 1 mM NADPH, enhanced by sfp gene product, room temperature, 20 min; against empty vector control (FIG. 12)
# Protocol: The activity of each of the N-terminal His-tagged carboxylate reductases of SEQ ID NOs: 3, 6, and 7 (see Examples 4, and FIGS. 7B, 7E, and 7F) for converting N7-acetyl-7-aminoheptanoate to N7-acetyl-7-aminoheptanal was assayed in triplicate in a buffer composed of a final concentration of 50 mM HEPES buffer (pH=7.5), 2 mM N7-acetyl-7-aminoheptanoate, 10 mM MgCl2, 1 mM ATP, and 1 mM NADPH. The assays were initiated by adding purified carboxylate reductase and phosphopantetheine transferase or the empty vector control to the assay buffer containing the N7-acetyl-7-aminoheptanoate then incubated at room temperature for 20 min. The consumption of NADPH was monitored by absorbance at 340 nm.
Molecule,"substrate acceptance, formation of L-alanine by RP-HPLC [1]","substrate acceptance, formation of L-alanine from pyruvate by RP-HPLC [3]","acceptance of 7-oxoheptanol, forming 7-aminoheptanol, concluded from reversibility [1]","substrate acceptance, formation of pyruvate from L-alanine by RP-HPLC [2]","reversibility of ω-transaminase activity: pimelate semialdehyde accepted, 7-aminoheptanoate synthesized [2]","substrate acceptance, consumption of NADPH by absorbance at 340 nm [4]"
"SEQ ID NO 8: Chromobacterium violaceum ω-transaminase (Genbank Accession No. AAQ59697.1) (protein, listed as Chromobacterium violaceum) MQKQRTTSQWRELDAAHHLHPFTDTASLNQAGARVMTRGEGVYLWDSEGNKIIDGMAGLWCVNVGYGRKDFAEAARRQMEELPFYNTFFKTTHPAVVELSSLLAEVTPAGFDRVFYTNSGSESVDTMIRMVRRYWDVQGKPEKKTLIGRWNGYHGSTIGGASLGGMKYMHEQGDLPIPGMAHIEQPWWYKHGKDMTPDEFGVVAARWLEEKILEIGADKVAAFVGEPIQGAGGVIVPPATYWPEIERICRKYDVLLVADEVICGFGRTGEWFGHQHFGFQPDLFTAAKGLSSGYLPIGAVFVGKRVAEGLIAGGDFNHGFTYSGHPVCAAVAHANVAALRDEGIVQRVKDDIGPYMQKRWRETFSRFEHVDDVRGVGMVQAFTLVKNKAKRELFPDFGEIGTLCRDIFFRNNLIMRACGDHIVSAPPLVMTRAEVDEMLAVAERCLEEFEQTLKARGLA",accepted 7-aminoheptanol as substrate,accepted 7-aminoheptanote as substrate,accept 7-oxoheptanol as substrate and form 7-aminoheptanol,–,accepted pimelate semialdehyde as substrate and synthesized 7-aminoheptanoate as a reaction product,–
"SEQ ID NO 3: Mycobacterium smegmatis carboxylate reductase (Genbank Accession No. ABK71854.1) (protein, listed as Mycobacterium smegmatis) MTSDVHDATDGVTETALDDEQSTRRIAELYATDPEFAAAAPLPAVVDAAHKPGLRLAEILQTLFTGYGDRPALGYRARELATDEGGRTVTRLLPRFDTLTYAQVWSRVQAVAAALRHNFAQPIYPGDAVATIGFASPDYLTLDLVCAYLGLVSVPLQHNAPVSRLAPILAEVEPRILTVSAEYLDLAVESVRDVNSVSQLVVFDHHPEVDDHRDALARAREQLAGKGIAVTTLDAIADEGAGLPAEPIYTADHDQRLAMILYTSGSTGAPKGAMYTEAMVARLWTMSFITGDPTPVINVNFMPLNHLGGRIPISTAVQNGGTSYFVPESDMSTLFEDLALVRPTELGLVPRVADMLYQHHLATVDRLVTQGADELTAEKQAGAELREQVLGGRVITGFVSTAPLAAEMRAFLDITLGAHIVDGYGLTETGAVTRDGVIVRPPVIDYKLIDVPELGYFSTDKPYPRGELLVRSQTLTPGYYKRPEVTASVFDRDGYYHTGDVMAETAPDHLVYVDRRNNVLKLAQGEFVAVANLEAVFSGAALVRQIFVYGNSERSFLLAVVVPTPEALEQYDPAALKAALADSLQRTARDAELQSYEVPADFIVETEPFSAANGLLSGVGKLLRPNLKDRYGQRLEQMYADIAATQANQLRELRRAAATQPVIDTLTQAAATILGTGSEVASDAHFTDLGGDSLSALTLSNLLSDFFGFEVPVGTIVNPATNLAQLAQHIEAQRTAGDRRPSFTTVHGADATEIRASELTLDKFIDAETLRAAPGLPKVTTEPRTVLLSGANGWLGRFLTLQWLERLAPVGGTLITIVRGRDDAAARARLTQAYDTDPELSRRFAELADRHLRVVAGDIGDPNLGLTPEIWHRLAAEVDLVVHPAALVNHVLPYRQLFGPNVVGTAEVIKLALTERIKPVTYLSTVSVAMGIPDFEEDGDIRTVSPVRPLDGGYANGYGNSKWAGEVLLREAHDLCGLPVATFRSDMILAHPRYRGQVNVPDMFTRLLLSLLITGVAPRSFYIGDGERPRAHYPGLTVDFVAEAVTTLGAQQREGYVSYDVMNPHDDGISLDVFVDWLIRAGHPIDRVDDYDDWVRRFETALTALPEKRRAQTVLPLLHAFRAPQAPLRGAPEPTEVFHAAVRTAKVGPGDIPHLDEALIDKYIRDLREFGLI",–,–,–,–,–,accepted N7-acetyl-7-aminoheptanoate as substrate

# Further lines, with some results ahead:
"substrate acceptance, formation of L-alanine by RP-HPLC [1]","substrate acceptance, formation of L-alanine from pyruvate by RP-HPLC [3]",Molecule,"acceptance of 7-oxoheptanol, forming 7-aminoheptanol, concluded from reversibility [1]","substrate acceptance, formation of pyruvate from L-alanine by RP-HPLC [2]","reversibility of ω-transaminase activity: pimelate semialdehyde accepted, 7-aminoheptanoate synthesized [2]","substrate acceptance, consumption of NADPH by absorbance at 340 nm [4]"
accepted 7-aminoheptanol as substrate,accepted 7-aminoheptanote as substrate,SEQ ID NO 11: Rhodobacter sphaeroides ω-transaminase (Genbank Accession No. ABA81135.1),accept 7-oxoheptanol as substrate and form 7-aminoheptanol,accepted pimelate semialdehyde as substrate,accepted pimelate semialdehyde as substrate and synthesized 7-aminoheptanoate as a reaction product,–
accepted 7-aminoheptanol as substrate,accepted 7-aminoheptanote as substrate,"SEQ ID NO 10: Pseudomonas syringae ω-transaminase (Genbank Accession No. AAY39893.1) (protein, listed as Pseudomonas syringae) MSANNPQTLEWQALSSEHHLAPFSDYKQLKEKGPRIITRAEGVYLWDSEGNKILDGMSGLWCVAIGYGREELADAASKQMRELPYYNLFFQTAHPPVLELAKAISDIAPEGMNHVFFTGSGSEGNDTMLRMVRHYWALKGQPNKKTIISRVNGYHGSTVAGASLGGMTYMHEQGDLPIPGVVHIPQPYWFGEGGDMTPDEFGIWAAEQLEKKILELGVENVGAFIAEPIQGAGGVIVPPDSYWPKIKEILSRYDILFAADEVICGFGRTSEWFGSDFYGLRPDMMTIAKGLTSGYVPMGGLIVRDEIVAVLNEGGDFNHGFTYSGHPVAAAVALENIRILREEKIVERVRSETAPYLQKRLRELSDHPLVGEVRGVGLLGAIELVKDKTTRERYTDKGAGMICRTFCFDNGLIMRAVGDTMIIAPPLVISFAQIDELVEKARTCLDLTLAVLQG",accept 7-oxoheptanol as substrate and form 7-aminoheptanol,accepted pimelate semialdehyde as substrate,accepted pimelate semialdehyde as substrate and synthesized 7-aminoheptanoate as a reaction product,–
–,accepted 7-aminoheptanote as substrate,"SEQ ID NO 13: Vibrio fluvialis ω-transaminase (Genbank Accession No. AEA39183.1) (protein, listed as Vibrio fluvialis) MNKPQSWEARAETYSLYGFTDMPSLHQRGTVVVTHGEGPYIVDVNGRRYLDANSGLWNMVAGFDHKGLIDAAKAQYERFPGYHAFFGRMSDQTVMLSEKLVEVSPFDSGRVFYTNSGSEANDTMVKMLWFLHAAEGKPQKRKILTRWNAYHGVTAVSASMTGKPYNSVFGLPLPGFVHLTCPHYWRYGEEGETEEQFVARLARELEETIQREGADTIAGFFAEPVMGAGGVIPPAKGYFQAILPILRKYDIPVISDEVICGFGRTGNTWGCVTYDFTPDAIISSKNLTAGFFPMGAVILGPELSKRLETAIEAIEEFPHGFTASGHPVGCAIALKAIDVVMNEGLAENVRRLAPRFEERLKHIAERPNIGEYRGIGFMWALEAVKDKASKTPFDGNLSVSERIANTCTDLGLICRPLGQSVVLCPPFILTEAQMDEMFDKLEKALDKVFAEVA",–,accepted pimelate semialdehyde as substrate,accepted pimelate semialdehyde as substrate and synthesized 7-aminoheptanoate as a reaction product,–
